Paper PMC10786891, “Massively parallel profiling of RNA-targeting CRISPR-Cas13d”
Residue numbers refer to the chain shown, from its start. Names may count otherwise.

B1: target 1 MT 5'PFS UGA 3'PFS CCG (mixed)
RNA 1: CACCCGUGCAAAAAUGCAGGGGUCUAAAACUGAGCGGAUAACCUCUCUAUGG
RNA 2: GGGAAUGGAUCCACAUCUACGAAUUCUGACCAUAGAGAGGUUAUCCGCUCACCGAGAUCGGAAGAGCACACGU
B2: target 1 G5U,A14G (mixed)
RNA 1: B1 RNA 1
RNA 2: B1 RNA 2 with U27G, G28U, A38G, G47U
B3: target 1 MT 5'PFS CUU 3'PFS UAA (mixed)
RNA 1: B1 RNA 1
RNA 2: B1 RNA 2 with U27C, G28U, A29U, C52U, C53A, G54A
B4: target 1 MT 5'PFS CGC 3'PFS UCG (mixed)
RNA 1: B1 RNA 1
RNA 2: B1 RNA 2 with U27C, A29C, C52U
B5: target 1 MT 5'PFS GGG 3'PFS UGC (mixed)
RNA 1: B1 RNA 1
RNA 2: B1 RNA 2 with U27G, A29G, C52U, C53G, G54C
B6: target 1 MT 5'PFS ACG 3'PFS UUA (mixed)
RNA 1: B1 RNA 1
RNA 2: B1 RNA 2 with U27A, G28C, A29G, C52U, C53U, G54A
B7: target 1 MT 5'PFS GUG 3'PFS GAC (mixed)
RNA 1: B1 RNA 1
RNA 2: B1 RNA 2 with U27G, G28U, A29G, C52G, C53A, G54C
B8: target 1 MT 5'PFS AGA 3'PFS UAG (mixed)
RNA 1: B1 RNA 1
RNA 2: B1 RNA 2 with U27A, C52U, C53A
B9: target 1 MT 5'PFS UGG 3'PFS CAU (mixed)
RNA 1: B1 RNA 1
RNA 2: B1 RNA 2 with A29G, C53A, G54U
B10: target 1 MT 5'PFS GUU 3'PFS AUA (mixed)
RNA 1: B1 RNA 1
RNA 2: B1 RNA 2 with U27G, G28U, A29U, C52A, C53U, G54A
B11: target 1 MT 5'PFS GUU 3'PFS AUC (mixed)
RNA 1: B1 RNA 1
RNA 2: B1 RNA 2 with U27G, G28U, A29U, C52A, C53U, G54C
B12: target 1 MT 5'PFS GUG 3'PFS GAG (mixed)
RNA 1: B1 RNA 1
RNA 2: B1 RNA 2 with U27G, G28U, A29G, C52G, C53A
B13: target 1 MT 5'PFS GUU 3'PFS UUA (mixed)
RNA 1: B1 RNA 1
RNA 2: B1 RNA 2 with U27G, G28U, A29U, C52U, C53U, G54A
B14: target 1 MT 5'PFS GUU 3'PFS AUG (mixed)
RNA 1: B1 RNA 1
RNA 2: B1 RNA 2 with U27G, G28U, A29U, C52A, C53U
B15: target 1 MT 5'PFS UAC 3'PFS ACU (mixed)
RNA 1: B1 RNA 1
RNA 2: B1 RNA 2 with G28A, A29C, C52A, G54U
B16: target 1 MT 5'PFS UGA 3'PFS CCU (mixed)
RNA 1: B1 RNA 1
RNA 2: B1 RNA 2 with G54U
B17: target 1 insC 3' of 9,insA 3' of 5 (mixed)
RNA 1: B1 RNA 1
RNA 2: GGGAAUGGAUCCACAUCUACGAAUUCGUACCAUAGAGAGGUUACUCCGACUCACCGAGAUCGGAAGAGCACACGU
B18: target 1 MT 5'PFS AGA 3'PFS UAA (mixed)
RNA 1: B1 RNA 1
RNA 2: B1 RNA 2 with U27A, C52U, C53A, G54A
B19: target 1 MT 5'PFS CUU 3'PFS UAU (mixed)
RNA 1: B1 RNA 1
RNA 2: B1 RNA 2 with U27C, G28U, A29U, C52U, C53A, G54U
B20: target 1 MT 5'PFS CUG 3'PFS CUA (mixed)
RNA 1: B1 RNA 1
RNA 2: B1 RNA 2 with U27C, G28U, A29G, C53U, G54A
B21: target 1 MT 5'PFS GGG 3'PFS UGA (mixed)
RNA 1: B1 RNA 1
RNA 2: B1 RNA 2 with U27G, A29G, C52U, C53G, G54A
B22: target 1 MT 5'PFS UUG 3'PFS CGG (mixed)
RNA 1: B1 RNA 1
RNA 2: B1 RNA 2 with G28U, A29G, C53G
B23: target 1 G17C (mixed)
RNA 1: B1 RNA 1
RNA 2: B1 RNA 2 with U27G, G28U, G35C
B24: target 1 MT 5'PFS UUG 3'PFS CGA (mixed)
RNA 1: B1 RNA 1
RNA 2: B1 RNA 2 with G28U, A29G, C53G, G54A
B25: target 1 MT 5'PFS CUG 3'PFS CUC (mixed)
RNA 1: B1 RNA 1
RNA 2: B1 RNA 2 with U27C, G28U, A29G, C53U, G54C
B26: target 1 MT 5'PFS GGG 3'PFS GAG (mixed)
RNA 1: B1 RNA 1
RNA 2: B1 RNA 2 with U27G, A29G, C52G, C53A
B27: target 1 MT 5'PFS GUU 3'PFS UUC (mixed)
RNA 1: B1 RNA 1
RNA 2: B1 RNA 2 with U27G, G28U, A29U, C52U, C53U, G54C
B28: target 1 insU 3' of 22,insG 3' of 16 (mixed)
RNA 1: B1 RNA 1
RNA 2: GGGAAUGGAUCCACAUCUACGAAUUCGUACUCAUAGAGGAGGUUAUCCGCUCACCGAGAUCGGAAGAGCACACGU
B29: target 1 insC 3' of 14,insC 3' of 9 (mixed)
RNA 1: B1 RNA 1
RNA 2: B17 RNA 2 with G39C, U41G, A43U, C44A, U45C, C46U, G48C, A49G
B30: target 1 MT 5'PFS AGA 3'PFS UAC (mixed)
RNA 1: B1 RNA 1
RNA 2: B1 RNA 2 with U27A, C52U, C53A, G54C
B31: target 1 MT 5'PFS ACG 3'PFS UUG (mixed)
RNA 1: B1 RNA 1
RNA 2: B1 RNA 2 with U27A, G28C, A29G, C52U, C53U
B32: target 1 MT 5'PFS UCG 3'PFS UGC (mixed)
RNA 1: B1 RNA 1
RNA 2: B1 RNA 2 with G28C, A29G, C52U, C53G, G54C
B33: target 1 MT 5'PFS GUU 3'PFS UUG (mixed)
RNA 1: B1 RNA 1
RNA 2: B1 RNA 2 with U27G, G28U, A29U, C52U, C53U
B34: target 1 MT 5'PFS CUU 3'PFS UAG (mixed)
RNA 1: B1 RNA 1
RNA 2: B1 RNA 2 with U27C, G28U, A29U, C52U, C53A
B35: target 1 MT 5'PFS GUG 3'PFS GAA (mixed)
RNA 1: B1 RNA 1
RNA 2: B1 RNA 2 with U27G, G28U, A29G, C52G, C53A, G54A
B36: target 1 MT 5'PFS UAC 3'PFS UCC (mixed)
RNA 1: B1 RNA 1
RNA 2: B1 RNA 2 with G28A, A29C, C52U, G54C
B37: target 1 MT 5'PFS UAC 3'PFS UCG (mixed)
RNA 1: B1 RNA 1
RNA 2: B1 RNA 2 with G28A, A29C, C52U
B38: target 1 MT 5'PFS ACG 3'PFS UUC (mixed)
RNA 1: B1 RNA 1
RNA 2: B1 RNA 2 with U27A, G28C, A29G, C52U, C53U, G54C
B39: target 1 MT 5'PFS GUG 3'PFS GAU (mixed)
RNA 1: B1 RNA 1
RNA 2: B1 RNA 2 with U27G, G28U, A29G, C52G, C53A, G54U

Biological target: T1, EsCas13d, nuclease-dead (Eubacterium siraeum, UniProt B0MS50, R295A;H300A;R849A;H854A)
T1 sequence: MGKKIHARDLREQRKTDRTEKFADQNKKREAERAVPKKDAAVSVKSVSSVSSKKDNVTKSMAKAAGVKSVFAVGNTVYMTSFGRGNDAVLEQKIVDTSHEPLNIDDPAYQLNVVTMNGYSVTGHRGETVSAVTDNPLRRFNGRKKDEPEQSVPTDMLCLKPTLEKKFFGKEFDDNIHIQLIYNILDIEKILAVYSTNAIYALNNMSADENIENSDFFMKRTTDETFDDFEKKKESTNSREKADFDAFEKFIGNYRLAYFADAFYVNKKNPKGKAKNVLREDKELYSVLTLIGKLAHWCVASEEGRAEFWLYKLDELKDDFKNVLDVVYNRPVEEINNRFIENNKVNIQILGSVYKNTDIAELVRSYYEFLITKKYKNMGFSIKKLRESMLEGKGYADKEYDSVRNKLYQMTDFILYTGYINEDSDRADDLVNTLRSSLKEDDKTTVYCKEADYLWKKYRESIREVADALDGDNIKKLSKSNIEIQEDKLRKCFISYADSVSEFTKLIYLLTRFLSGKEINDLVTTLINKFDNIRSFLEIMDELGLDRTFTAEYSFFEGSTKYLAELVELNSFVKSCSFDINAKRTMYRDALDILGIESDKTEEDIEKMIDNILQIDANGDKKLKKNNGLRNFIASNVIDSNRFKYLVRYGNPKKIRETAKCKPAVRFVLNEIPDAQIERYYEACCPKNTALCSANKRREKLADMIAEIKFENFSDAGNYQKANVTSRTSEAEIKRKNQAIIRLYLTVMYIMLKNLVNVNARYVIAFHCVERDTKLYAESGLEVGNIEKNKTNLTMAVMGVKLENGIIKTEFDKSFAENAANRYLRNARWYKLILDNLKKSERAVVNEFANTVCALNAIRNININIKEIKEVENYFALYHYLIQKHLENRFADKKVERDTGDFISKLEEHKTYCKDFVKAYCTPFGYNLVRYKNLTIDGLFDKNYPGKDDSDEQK
Assay: crRNA (strand 1, pre-loaded); Mg2+; 40 mM Tris-HCl pH 7.5, 150 mM NaCl, 6 mM MgCl2, 1 mM DTT, 0.1% Tween-20, 0.2 mg/ml BSA; 25 C; 10 min per concentration, then washed
Settings: tags: His6-TwinStrep-SUMO cleaved; N-terminal SNAP kept (SNAP-Surface 488); label: 3' end held by stalled T7 RNA polymerase

| Binder | Kd |
| --- | --- |
| B1 | ~42.5 nM |
| B2 | 68 ± 7 nM |
| B3 | 35 ± 11.5 nM |
| B4 | ~76 nM |
| B5 | 12.8 ± 1.3 nM |
| B6 | 6.9 ± 1.3 nM |
| B7 | 17.2 ± 2.9 nM |
| B8 | 35.5 ± 14 nM |
| B9 | 80 ± 32 nM |
| B10 | 22 ± 5.5 nM |
| B11 | 19.3 ± 3.55 nM |
| B12 | 18.8 ± 2.25 nM |
| B13 | 13.1 ± 2.5 nM |
| B14 | 56 ± 9 nM |
| B15 | 11.2 ± 3.5 nM |
| B16 | 36 ± 15 nM |
| B17 | 5.89 ± 0.35 nM |
| B18 | 45 ± 20 nM |
| B19 | 56 ± 24 nM |
| B20 | 5.8 ± 1.9 nM |

| Binder | Kd |
| --- | --- |
| B21 | 24.5 ± 4 nM |
| B22 | ~97 nM |
| B23 | 40 ± 8 nM |
| B24 | 47.5 ± 23.5 nM |
| B25 | 4.15 ± 1.5 nM |
| B26 | 20.5 ± 5.5 nM |
| B27 | 10.6 ± 1.45 nM |
| B28 | 48 ± 16 nM |
| B29 | 42 ± 11 nM |
| B30 | 40 ± 17 nM |
| B31 | 7.45 ± 1 nM |
| B32 | ~50 nM |
| B33 | 11.1 ± 1.05 nM |
| B34 | ~90 nM |
| B35 | 12.9 ± 1.4 nM |
| B36 | 12.5 ± 5 nM |
| B37 | 21.3 ± 8.05 nM |
| B38 | 19.5 ± 8 nM |
| B39 | 15.4 ± 1.95 nM |
